In the supplement of paper PMC10724198:
± gives the standard deviation of the averaged measurements.

What was measured:
Saccharomyces cerevisiae [1] = experiment: protein stability index of tFT-peptide fusion (C-terminal peptide) (PSI (0-1 scale)); higher = more stable (slower turnover)
Protocol: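 MPS profiling in S. cerevisiae of the tFT-X12 degron library: putative degron peptides plus stable controls, 12 aa, fused to the C-terminus of a sfGFP-mCherry timer. Cells are FACS-sorted into 8 mCherry/sfGFP bins and deep-sequenced. PSI runs from 0 (unstable) to 1 (stable). Backgrounds are wild type, das1Δ and doa10Δ at 30 °C, and wild type, das1Δ, cdc34-1 and cdc53-1 at 37 °C; 2-3 technical replicates each.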

Saccharomyces cerevisiae [2] = experiment: as above; settings: genetic background: wild type; temperature: 30 C
[3] = genetic background: cdc34-1, temperature: 37 C
[4] = genetic background: cdc53-1, temperature: 37 C
[5] = genetic background: das1 deletion, temperature: 30 C
[6] = genetic background: das1 deletion, temperature: 37 C
[7] = genetic background: doa10 deletion, temperature: 30 C
[8] = genetic background: wild type, temperature: 30 C
[9] = genetic background: wild type, temperature: 37 C
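Note: PSI is a weighted mean of sequencing reads over stability bins, variants kept only with over 10 reads, mCherry proximal and sfGFP distal, peptide attached via GGGS linker.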

| Sequence | protein stability index (Saccharomyces cerevisiae [1]; [3]) | protein stability index (Saccharomyces cerevisiae [1]; [4]) | protein stability index (Saccharomyces cerevisiae [1]; [5]) | protein stability index (Saccharomyces cerevisiae [1]; [6]) | protein stability index (Saccharomyces cerevisiae [1]; [7]) | protein stability index (Saccharomyces cerevisiae [1]; [8]) | protein stability index (Saccharomyces cerevisiae [1]; [9]) | protein stability index (Saccharomyces cerevisiae [2]) |
| --- | --- | --- | --- | --- | --- | --- | --- | --- |
| SPIGIFCFILCR | 0.0729 ± 0.011 | 0.0462 ± 0.023 | 0.153 ± 0.027 | 0.211 ± 0.016 | 0.176 ± 0.019 | 0.147 ± 0.038 | 0.157 ± 0.013 | 0.187 ± 0.049 |
| VFVMVLCALFYF | 0.248 ± 0.034 | 0.282 ± 0.04 | 0.242 ± 0.032 | 0.38 ± 0.032 | 0.2436 ± 0.0014 | 0.236 ± 0.017 | 0.319 ± 0.015 | 0.279 ± 0.022 |
| NKYSMQNVLKSF | 0.7 ± 0.034 | 0.711 ± 0.02 | 0.632 ± 0.025 | 0.752 ± 0.017 | 0.249 ± 0.06 | 0.323 ± 0.025 | 0.552 ± 0.049 | 0.418 ± 0.023 |
| GVVCCVVVGRMG | 0.619 ± 0.024 | 0.659 ± 0.024 | 0.474 ± 0.024 | 0.665 ± 0.018 | 0.445 ± 0.032 | 0.451 ± 0.013 | 0.63558 ± 6.8e-05 | 0.503 ± 0.053 |
| LRFFYFLHFCIL | 0.36 ± 0.033 | 0.366 ± 0.024 | 0.43 ± 0.018 | 0.504 ± 0.0076 | 0.256 ± 0.0083 | 0.223 ± 0.0052 | 0.286 ± 0.021 | 0.277 ± 0.03 |
| RLGRYSIIHCLA | 0.295 ± 0.023 | 0.459 ± 0.044 | 0.327 ± 0.029 | 0.52 ± 0.021 | 0.0877 ± 0.015 | 0.102 ± 0.028 | 0.0944 ± 0.058 | 0.15 ± 0.0068 |
| WRCECELASACA | 0.458 ± 0.015 | 0.473 ± 0.027 | 0.347 ± 0.037 | 0.508 ± 0.0082 | 0.31 ± 0.0062 | 0.361 ± 0.024 | 0.486 ± 0.0079 | 0.431 ± 0.013 |
| LFSPLKGILSVM | 0.589 ± 0.0073 | 0.664 ± 0.011 | 0.51 ± 0.032 | 0.691 ± 0.0074 | 0.2641 ± 0.00021 | 0.316 ± 0.027 | 0.5081 ± 0.0023 | 0.448 ± 0.018 |
| SRSFFRRLLFCF | 0.642 ± 0.033 | 0.7705 ± 0.0056 | 0.679 ± 0.022 | 0.8141 ± 0.0018 | 0.3352 ± 0.0008 | 0.352 ± 0.0083 | 0.4821 ± 0.0037 | 0.396 ± 0.016 |
| GLGMVIIGLLIG | 0.176 ± 0.011 | 0.342 ± 0.09 | 0.224 ± 0.032 | 0.432 ± 0.042 | 0.191 ± 0.0035 | 0.227 ± 0.01 | 0.387 ± 0.0056 | 0.354 ± 0.022 |
| SWIKRYEITCIL | 0.543 ± 0.033 | 0.568 ± 0.026 | 0.424 ± 0.044 | 0.5973 ± 0.0036 | 0.363 ± 0.0093 | 0.39 ± 0.0099 | 0.492 ± 0.027 | 0.478 ± 0.015 |
| EYGLLLTLLAYY | 0.4526 ± 0.0018 | 0.508 ± 0.047 | 0.351 ± 0.026 | 0.549 ± 0.0092 | 0.2986 ± 0.0026 | 0.324 ± 0.021 | 0.5128 ± 0.0022 | 0.362 ± 0.044 |
| WGGIASLVASAA | 0.36 ± 0.049 | 0.437 ± 0.1 | 0.236 ± 0.033 | 0.411 ± 0.0061 | 0.214 ± 0.006 | 0.259 ± 0.019 | 0.378 ± 0.023 | 0.364 ± 0.0089 |
| IWVWMLSVWLGG | 0.303 ± 0.016 | 0.3731 ± 0.002 | 0.291 ± 0.021 | 0.409 ± 0.022 | 0.273 ± 0.021 | 0.288 ± 0.017 | 0.407 ± 0.018 | 0.349 ± 0.013 |
| RVGWVVVLGCVG | 0.545 ± 0.04 | 0.548 ± 0.014 | 0.401 ± 0.027 | 0.578 ± 0.012 | 0.366 ± 0.009 | 0.397 ± 0.015 | 0.55 ± 0.014 | 0.479 ± 0.0089 |
| SIQRKIRRMKEN | 0.559 ± 0.093 | 0.732 ± 0.046 | 0.699 ± 0.048 | 0.7 ± 0.014 | 0.355 ± 0.017 | 0.333 ± 0.054 | 0.566 ± 0.0026 | 0.4687 ± 0.0016 |
| PGFCFFLYYCMM | 0.4815 ± 0.0025 | 0.558 ± 0.056 | 0.416 ± 0.031 | 0.562 ± 0.011 | 0.368 ± 0.0053 | 0.412 ± 0.018 | 0.5331 ± 0.00095 | 0.49 ± 0.034 |
| GYACSIFYLRCV | 0.535 ± 0.037 | 0.5771 ± 6.4e-05 | 0.496 ± 0.03 | 0.6266 ± 0.00063 | 0.218 ± 0.0038 | 0.23 ± 0.021 | 0.444 ± 0.016 | 0.377 ± 0.014 |
| DSSRRKRLICMN | 0.611 ± 0.016 | 0.702 ± 0.032 | 0.656 ± 0.015 | 0.731 ± 0.008 | 0.18 ± 0.016 | 0.21 ± 0.032 | 0.341 ± 0.017 | 0.25 ± 0.093 |
| VLVVASLRFSFF | 0.207 ± 0.054 | 0.34 ± 0.036 | 0.197 ± 0.029 | 0.40083 ± 0.00033 | 0.173 ± 0.019 | 0.2 ± 0.014 | 0.38 ± 0.0063 | 0.249 ± 0.017 |

| Sequence | protein stability index (Saccharomyces cerevisiae [1]; [3]) | protein stability index (Saccharomyces cerevisiae [1]; [4]) | protein stability index (Saccharomyces cerevisiae [1]; [5]) | protein stability index (Saccharomyces cerevisiae [1]; [6]) | protein stability index (Saccharomyces cerevisiae [1]; [7]) | protein stability index (Saccharomyces cerevisiae [1]; [8]) | protein stability index (Saccharomyces cerevisiae [1]; [9]) | protein stability index (Saccharomyces cerevisiae [2]) |
| --- | --- | --- | --- | --- | --- | --- | --- | --- |
| MMEMMTKSNRIP | 0.683 ± 0.029 | 0.737 ± 0.015 | 0.63 ± 0.016 | 0.709 ± 0.04 | 0.4 ± 0.02 | 0.446 ± 0.074 | 0.639 ± 0.016 | 0.517 ± 0.025 |
| LSVSEILAVKCG | 0.559 ± 0.034 | 0.584 ± 0.0073 | 0.429 ± 0.034 | 0.592 ± 0.026 | 0.363 ± 0.0039 | 0.411 ± 0.026 | 0.5632 ± 0.0052 | 0.489 ± 0.012 |
| IFSFRWVLPFWL | 0.611 ± 0.059 | 0.701 ± 0.008 | 0.6 ± 0.026 | 0.70093 ± 0.00061 | 0.2407 ± 0.00051 | 0.256 ± 0.04 | 0.424 ± 0.0043 | 0.365 ± 0.098 |
| VYFRYWLLVVVF | 0.0945 ± 0.029 | 0.106 ± 0.022 | 0.148 ± 0.034 | 0.215 ± 0.0027 | 0.117 ± 0.029 | 0.101 ± 0.026 | 0.15 ± 0.0062 | 0.129 ± 0.019 |
| CTAWWVKGVAVK | 0.622 ± 0.033 | 0.6395 ± 0.0018 | 0.443 ± 0.031 | 0.643 ± 0.023 | 0.424 ± 0.028 | 0.435 ± 0.018 | 0.624 ± 0.029 | 0.525 ± 0.049 |
| VVLCQVCVLWGW | 0.0623 ± 0.011 | 0.202 ± 0.029 | 0.167 ± 0.031 | 0.252 ± 0.01 | 0.148 ± 0.0088 | 0.151 ± 0.029 | 0.229 ± 0.025 | 0.257 ± 0.016 |
| YGHLPLLVLFCV | 0.459 ± 0.013 | 0.509 ± 0.037 | 0.352 ± 0.035 | 0.541 ± 0.013 | 0.211 ± 0.0055 | 0.237 ± 0.023 | 0.399 ± 0.022 | 0.366 ± 0.049 |
| FLLASSRRICCS | 0.458 ± 0.0088 | 0.486 ± 0.029 | 0.365 ± 0.025 | 0.5347 ± 0.001 | 0.249 ± 0.015 | 0.269 ± 0.028 | 0.47 ± 0.013 | 0.391 ± 0.0082 |
| FLMLFVVLWLFL | 0.427 ± 0.026 | 0.46 ± 0.0076 | 0.394 ± 0.028 | 0.522 ± 0.071 | 0.389 ± 0.014 | 0.369 ± 0.04 | 0.448 ± 0.0072 | 0.366 ± 0.076 |
| SFLVFLYFFMVF | 0.3637 ± 0.0027 | 0.429 ± 0.058 | 0.335 ± 0.038 | 0.449 ± 0.02 | 0.316 ± 0.016 | 0.303 ± 0.034 | 0.446 ± 0.031 | 0.379 ± 0.013 |
| GRGLGHWWTVRT | 0.672 ± 0.03 | 0.756 ± 0.024 | 0.698 ± 0.017 | 0.741 ± 0.015 | 0.689 ± 0.013 | 0.704 ± 0.0092 | 0.716 ± 0.012 | 0.751 ± 0.033 |
| RQALYFLMICGL | 0.508 ± 0.024 | 0.564 ± 0.023 | 0.407 ± 0.039 | 0.545 ± 0.0071 | 0.29391 ± 6e-05 | 0.318 ± 0.019 | 0.459 ± 0.027 | 0.421 ± 0.0045 |
| RLIARFKILRCI | 0.259 ± 0.012 | 0.588 ± 0.011 | 0.559 ± 0.012 | 0.635 ± 0.0085 | 0.0618 ± 0.0034 | 0.0662 ± 0.0038 | 0.0702 ± 0.0014 | 0.0979 ± 0.064 |
| RIEGTLTARTAF | 0.736 ± 0.069 | 0.7639 ± 0.0033 | 0.635 ± 0.033 | 0.744 ± 0.013 | 0.65 ± 0.01 | 0.66 ± 0.0097 | 0.709 ± 0.00092 | 0.579 ± 0.18 |
| TLLMVSMTVRPL | 0.3005 ± 0.00077 | 0.379 ± 0.02 | 0.274 ± 0.022 | 0.411 ± 0.011 | 0.26 ± 0.0094 | 0.272 ± 0.022 | 0.398 ± 0.036 | 0.38 ± 0.0051 |
| LFVVHCFLSVSS | 0.0267 ± 0.0027 | 0.0524 ± 0.033 | 0.0648 ± 0.021 | 0.165 ± 0.0062 | 0.0415 ± 0.0025 | 0.0374 ± 0.017 | 0.133 ± 0.029 | 0.109 ± 0.039 |
| WFCCAQRGVIVG | 0.446 ± 0.018 | 0.452 ± 0.028 | 0.336 ± 0.024 | 0.502 ± 0.0087 | 0.311 ± 0.011 | 0.336 ± 0.026 | 0.478 ± 0.0083 | 0.405 ± 0.012 |
| VSIVLHSVPCGG | 0.514 ± 0.029 | 0.5211 ± 0.0032 | 0.389 ± 0.019 | 0.54459 ± 0.0005 | 0.361 ± 0.011 | 0.392 ± 0.024 | 0.519 ± 0.011 | 0.453 ± 0.035 |
| RLHCFSPILCPI | 0.6063 ± 0.0042 | 0.576 ± 0.0073 | 0.434 ± 0.029 | 0.59601 ± 0.00033 | 0.402 ± 0.021 | 0.436 ± 0.017 | 0.579 ± 0.036 | 0.493 ± 0.012 |
